Measurements taken from US20170008949A1 (Hoffmann-La Roche, published 2017).

Legend:
[1] = molecular target: recombinant non-glycosylated human PAI-1 (active), produced in E. coli as N-terminal 6xHis-tagged fusion … (human, UniProt P05121 24-402); test: cell-based or functional assay
[2] = molecular target: recombinant glycosylated human PAI-1 (active), produced in insect cells (human, UniProt P05121 24-402, glycosylated (sites not given)); test: cell-based or functional assay
Chain of recombinant glycosylated human PAI-1 (active), produced in insect cells (P05121 24-402 limits assumed): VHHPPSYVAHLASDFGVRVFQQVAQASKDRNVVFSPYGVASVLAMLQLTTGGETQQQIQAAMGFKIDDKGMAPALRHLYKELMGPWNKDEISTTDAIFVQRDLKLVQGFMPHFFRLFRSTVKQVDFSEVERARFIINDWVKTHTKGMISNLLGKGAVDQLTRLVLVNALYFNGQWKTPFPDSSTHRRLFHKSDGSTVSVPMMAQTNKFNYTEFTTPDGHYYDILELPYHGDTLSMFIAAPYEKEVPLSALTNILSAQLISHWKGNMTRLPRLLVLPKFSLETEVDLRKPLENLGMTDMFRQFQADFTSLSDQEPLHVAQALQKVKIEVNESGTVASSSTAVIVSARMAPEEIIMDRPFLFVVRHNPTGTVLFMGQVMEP

Chain of recombinant non-glycosylated human PAI-1 (active), produced in E. coli as N-terminal 6xHis-tagged fusion … (P05121 24-402 limits assumed): as above

IC50 (µM) vs. human PAI-1, PAI-1 inhibition assay (residual rPA serine protease activity) [1]: 0.005 µM | IC50 (µM) vs. human PAI-1, PAI-1 inhibition assay (residual rPA serine protease activity) [2]: 0.065 µM
B1: PAI1-0046 (reference PAI-1 latency inducing antibody with a human IgG4 SPLE Fc-region) (antibody, V domains shown)
VH: QVQLVQSGAEVKKPGASVKVSCKASGYTFTNYGMNWVRQAPGQGLEWMGWINTYTGEPTYTDDFKGRFTMTLDTSISTAYMELSRLRSDDTAVYYCAKDVSGFVFDYWGQGTLVTVSS
VL: DIVMTQSPDSLAVSLGERATINCKSSQSLLNIIKQKNCLAWYQQKPGQPPKLLIYWASTRESGVPDRFSGSGSGTDFTLTISSLQAEDVAVYYCQQYYSYPYTFGQGTKLEIKR
